± gives the standard deviation of the averaged measurements.

The data set concerns ATP. In words: switch fluorescence ratio, 500 uM ATP over buffer (Cy3 cluster intensity, sum of 5 cycles each) (fold (ratio)); higher = stronger signal-on switching upon ATP binding; sequences stand for … in TCGTCGGCAGCGTCAGATGTGTATAAGAGACAGTTTTTTTTTTTTTTTTTTTTTTTTT…TC. As to conditions: aptamer strand: ATP DNA aptamer (quencher-CACCTGGGGGAGTATTGCGGAGGAAGG + anchor), 100 nM annealed; ATP concentration: 500 uM. The method in brief: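 Cy3-labelled switching-strand clusters on a modified Illumina MiSeq flow-cell were annealed to 100 nM quencher-labelled ATP aptamer, imaged in selection buffer, then imaged after 15 min with 500 uM ATP at 22 °C. Five buffer/ATP cycles ran, with NaOH stripping and re-annealing between them. The fluorescence ratio is summed target-cycle over summed buffer-cycle Cy3 intensity per cluster, averaged per switch-domain sequence. Clusters outside 100-1000 RFU were excluded.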
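Further: ATP exposure 15 min at 22 °C before imaging.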

For the sequence CTAGGAGCTT, the switch fluorescence ratio is 1 ± 0.044.

For the sequence CTAGGGGATG, the switch fluorescence ratio came out at 1.03 ± 0.062.

CTAGGGTGGA: the switch fluorescence ratio was determined as 1.05 ± 0.023.

As to CTAGGGTTGT, the switch fluorescence ratio amounted to 1.02 ± 0.045.

On to CTAGGTAGGG, for which the switch fluorescence ratio amounted to 0.997 ± 0.035.

For the sequence CTAGTACGGG, the switch fluorescence ratio was found to be 1.04 ± 0.031.

Regarding CTAGTCACGT, the switch fluorescence ratio was 1.003 ± 0.0031.

As for CTAGTCGCGC, the switch fluorescence ratio worked out at 1 ± 0.026.

As for CTAGTTGGTA, the switch fluorescence ratio stood at 0.994 ± 0.027.

CTATAACAAT: the switch fluorescence ratio stood at 1.02 ± 0.021.

With CTATACGGTA, the switch fluorescence ratio stood at 1.128 ± 0.0097.

In the case of CTATCTTCGG, the switch fluorescence ratio stood at 0.974 ± 0.038.

In the case of CTATGCTAGT, the switch fluorescence ratio was 1.01 ± 0.016.

Regarding CTATGGAAGG, the switch fluorescence ratio was found to be 0.98 ± 0.013.

For the sequence CTATGGGATG, the switch fluorescence ratio is 0.992 ± 0.039.

CTATGGGGTG: the switch fluorescence ratio was determined as 1.04 ± 0.04.

On to CTATGTAAAT, for which the switch fluorescence ratio worked out at 1.01 ± 0.031.

Regarding CTATGTGGGT, the switch fluorescence ratio came out at 1.02 ± 0.048.

CTATGTGTCA: the switch fluorescence ratio was 0.977 ± 0.05.

Turning to CTATGTGTCT, the switch fluorescence ratio worked out at 0.97 ± 0.043.

Turning to CTATGTTATT, the switch fluorescence ratio worked out at 1.01 ± 0.038.

For CTATGTTCGC, the switch fluorescence ratio was determined as 0.954 ± 0.023.

With CTATTATAGT, the switch fluorescence ratio was found to be 0.9844 ± 0.0034.

CTATTATTCT: the switch fluorescence ratio came to 0.983 ± 0.018.

Take CTATTCCGAG: the switch fluorescence ratio amounted to 1.16 ± 0.066.

On to CTATTTACGA, for which the switch fluorescence ratio came out at 1.05 ± 0.015.

On to CTATTTAGGG, for which the switch fluorescence ratio was 0.996 ± 0.024.

Turning to CTATTTCTAC, the switch fluorescence ratio came to 1.03 ± 0.046.

For CTATTTTAAG, the switch fluorescence ratio was 1.02 ± 0.051.

For the sequence CTCAAAAGA, the switch fluorescence ratio was found to be 1.11 ± 0.077.

As for CTCAAAAGTA, the switch fluorescence ratio is 1.09 ± 0.11.

Take CTCAACGATT: the switch fluorescence ratio was determined as 1.03 ± 0.048.

Turning to CTCAAGACGG, the switch fluorescence ratio is 1.06 ± 0.012.

For the sequence CTCAAGGTGA, the switch fluorescence ratio turned out to be 1.45 ± 0.11.

Turning to CTCAATAGCA, the switch fluorescence ratio is 1.036 ± 0.0037.

CTCAATCGAA: the switch fluorescence ratio was found to be 1.03 ± 0.026.

On to CTCAATCGGG, for which the switch fluorescence ratio amounted to 1.04 ± 0.021.

As to CTCAATTCTG, the switch fluorescence ratio was found to be 0.969 ± 0.031.

CTCAGACAGC: the switch fluorescence ratio amounted to 1.107 ± 0.0056.

Take CTCAGAGAAG: the switch fluorescence ratio came to 1.02 ± 0.058.

Consider CTCAGGGCCG, for which the switch fluorescence ratio was determined as 1.05 ± 0.11.

As to CTCAGGGGGG, the switch fluorescence ratio is 1.02 ± 0.04.

For the sequence CTCAGGTGGC, the switch fluorescence ratio is 1.04 ± 0.053.

On to CTCATATAGC, for which the switch fluorescence ratio came out at 0.999 ± 0.019.

Take CTCATCGGCT: the switch fluorescence ratio turned out to be 1.03 ± 0.03.

With CTCATCTAAT, the switch fluorescence ratio is 0.9821 ± 0.0081.

For the sequence CTCCATATGT, the switch fluorescence ratio is 1.039 ± 0.0016.

As to CTCCGGTTTG, the switch fluorescence ratio stood at 2.03 ± 1.4.

For CTCCGTGGGG, the switch fluorescence ratio worked out at 1.47 ± 0.042.

For the sequence CTCCTCAGTG, the switch fluorescence ratio worked out at 2.26 ± 0.29.

Turning to CTCGAGAGCT, the switch fluorescence ratio came out at 0.973 ± 0.018.

With CTCGATAGGA, the switch fluorescence ratio worked out at 1.02 ± 0.0083.

Regarding CTCGATGTGG, the switch fluorescence ratio turned out to be 0.985 ± 0.044.

With CTCGCACGTT, the switch fluorescence ratio is 1.03 ± 0.032.

On to CTCGCAGGAA, for which the switch fluorescence ratio was 1.75 ± 0.078.

Consider CTCGCGTTAA, for which the switch fluorescence ratio amounted to 1.11 ± 0.13.

Consider CTCGCTAGGA, for which the switch fluorescence ratio came to 1.05 ± 0.019.

Take CTCGCTCGTG: the switch fluorescence ratio came out at 1.03 ± 0.016.

With CTCGCTTTTT, the switch fluorescence ratio came to 1.2 ± 0.29.

In the case of CTCGGAACTA, the switch fluorescence ratio stood at 1.04 ± 0.03.

Take CTCGGACAAG: the switch fluorescence ratio came out at 0.9964 ± 0.0058.

Take CTCGGCCGGC: the switch fluorescence ratio is 0.982 ± 0.049.

Regarding CTCGGGACTT, the switch fluorescence ratio was determined as 0.9884 ± 0.0024.

Consider CTCGGGAGTA, for which the switch fluorescence ratio came out at 1 ± 0.042.

Take CTCGGGCACG: the switch fluorescence ratio stood at 0.989 ± 0.046.

For CTCGGGGAGT, the switch fluorescence ratio was determined as 1.012 ± 0.0064.

Turning to CTCGGTTGAC, the switch fluorescence ratio was 1.07 ± 0.015.

As for CTCGGTTGGT, the switch fluorescence ratio stood at 1.006 ± 0.0083.

Take CTCGTACTTA: the switch fluorescence ratio came out at 1 ± 0.019.

CTCGTCAATT: the switch fluorescence ratio was 1.52 ± 0.24.

Regarding CTCGTCACTC, the switch fluorescence ratio is 1.232 ± 0.0097.

As for CTCGTGTGTG, the switch fluorescence ratio came out at 1.044 ± 0.0073.

For CTCGTTCCGG, the switch fluorescence ratio came out at 0.997 ± 0.043.

For CTCGTTTTTG, the switch fluorescence ratio was found to be 0.972 ± 0.012.

For CTCTACAGGG, the switch fluorescence ratio is 1.04 ± 0.042.

For CTCTGAGGTT, the switch fluorescence ratio was determined as 1 ± 0.035.

For the sequence CTCTGCGGTT, the switch fluorescence ratio was 1.891 ± 0.0039.

Take CTCTGTGTTA: the switch fluorescence ratio was 1.06 ± 0.015.

For the sequence CTCTTAAGGG, the switch fluorescence ratio amounted to 1.01 ± 0.018.

Turning to CTCTTGAATA, the switch fluorescence ratio amounted to 0.9957 ± 0.0015.

CTCTTTGCC: the switch fluorescence ratio stood at 1.17 ± 0.27.

For the sequence CTGAAAAATT, the switch fluorescence ratio is 1.01 ± 0.078.

CTGAAAGAGT: the switch fluorescence ratio was 0.976 ± 0.026.

For the sequence CTGAAAGGGA, the switch fluorescence ratio worked out at 1.01 ± 0.02.

Take CTGAACTTTA: the switch fluorescence ratio worked out at 1.04 ± 0.043.

For the sequence CTGAAGCTCA, the switch fluorescence ratio worked out at 1.91 ± 0.044.

As for CTGAAGGGAC, the switch fluorescence ratio was found to be 1.15 ± 0.036.

For CTGAAGGGCT, the switch fluorescence ratio came to 1.04 ± 0.017.

For CTGAATATTC, the switch fluorescence ratio came to 1.021 ± 0.0036.

For CTGAATCCGT, the switch fluorescence ratio was 1.25 ± 0.036.

On to CTGAATTAGT, for which the switch fluorescence ratio worked out at 1.01 ± 0.019.

For CTGACTGCAG, the switch fluorescence ratio came out at 1.01 ± 0.049.

For CTGAGGATCG, the switch fluorescence ratio was 0.994 ± 0.034.

Regarding CTGAGGCCCG, the switch fluorescence ratio is 0.984 ± 0.05.

On to CTGAGGGCTG, for which the switch fluorescence ratio turned out to be 1.03 ± 0.028.

With CTGAGGGGCG, the switch fluorescence ratio was found to be 1.04 ± 0.057.

In the case of CTGAGGGGGG, the switch fluorescence ratio worked out at 0.985 ± 0.019.

Turning to CTGAGTATGT, the switch fluorescence ratio was determined as 0.988 ± 0.015.

As for CTGAGTCGTG, the switch fluorescence ratio stood at 1 ± 0.066.

Turning to CTGAGTGGGA, the switch fluorescence ratio is 1.02 ± 0.013.

Regarding CTGATAACAT, the switch fluorescence ratio came out at 1.02 ± 0.018.

Regarding CTGATGAGAG, the switch fluorescence ratio is 0.997 ± 0.051.

For the sequence CTGATGTCGT, the switch fluorescence ratio is 1.01 ± 0.033.

As for CTGATTCAGA, the switch fluorescence ratio worked out at 0.98 ± 0.019.

CTGCAACAGA: the switch fluorescence ratio was 1.0455 ± 0.00015.

Regarding CTGCAACGGA, the switch fluorescence ratio was determined as 1.13 ± 0.056.

Regarding CTGCACCATG, the switch fluorescence ratio is 1.01 ± 0.028.

For CTGCCAATGG, the switch fluorescence ratio was 1.99 ± 0.053.

As for CTGCCAGATG, the switch fluorescence ratio came out at 1.1 ± 0.054.

CTGCCCGGCG: the switch fluorescence ratio came to 1.03 ± 0.027.

Turning to CTGCGGGGAT, the switch fluorescence ratio came out at 1.02 ± 0.027.

Take CTGCGGGGGG: the switch fluorescence ratio was determined as 0.999 ± 0.015.

Take CTGCGGGGGT: the switch fluorescence ratio stood at 1.03 ± 0.038.

Consider CTGCGTGCGG, for which the switch fluorescence ratio is 0.99635 ± 0.00049.

As to CTGCGTGGAG, the switch fluorescence ratio stood at 1.03 ± 0.026.

As to CTGCTACAGT, the switch fluorescence ratio amounted to 1.03 ± 0.02.

Regarding CTGCTCCGAT, the switch fluorescence ratio worked out at 1.21 ± 0.034.

On to CTGGAAAACC, for which the switch fluorescence ratio came out at 1.02 ± 0.0058.

CTGGAACAGT: the switch fluorescence ratio stood at 0.976 ± 0.015.

As to CTGGAATAGC, the switch fluorescence ratio is 2.21 ± 0.3.

The values are drawn from the supplement of paper PMC10126150.
